Source: US20130053541A1, “METHODS FOR DISCOVERING MOLECULES THAT BIND TO PROTEINS” (LYNNTECH, INC., priority 2011, published 2013)

Molecular target: T1, native human ESRRG protein (Homo sapiens, UniProt P62508)
T1 sequence (P62508 1-458): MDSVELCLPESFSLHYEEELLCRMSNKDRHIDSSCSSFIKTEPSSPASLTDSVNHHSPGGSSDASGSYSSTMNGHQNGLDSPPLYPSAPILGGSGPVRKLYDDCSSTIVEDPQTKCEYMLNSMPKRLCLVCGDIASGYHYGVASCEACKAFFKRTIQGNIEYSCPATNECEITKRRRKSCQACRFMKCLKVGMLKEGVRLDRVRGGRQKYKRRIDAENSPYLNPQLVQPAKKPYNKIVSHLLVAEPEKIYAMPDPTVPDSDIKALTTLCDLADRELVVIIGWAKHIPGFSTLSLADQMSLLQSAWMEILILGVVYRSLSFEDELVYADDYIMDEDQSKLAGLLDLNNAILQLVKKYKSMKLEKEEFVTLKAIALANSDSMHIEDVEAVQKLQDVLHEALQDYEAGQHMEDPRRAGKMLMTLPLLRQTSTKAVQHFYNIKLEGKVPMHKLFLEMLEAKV
Experiment: peptide microarray screening for ESRRG binding (Iteration 1 and 2)
Conditions: for Sample A (Bkgd) Signal / Sample B (Probe) Signal: fluorescence intensity units
From the text: The BLOSUM62 matrix was divided into Tiers based, with Tier 1 comprising “most conserved” (lowest penalty) and Tier 3 comprising “least conserved” (highest penalty) mutations observed in nature. Sequences for microarray production for the primary stage (Iteration 1) of screening for protein binding were created by permuting AA positions 4 and/or 5 only (i.e., core of sequence) of parent 8-mer peptides using Tier 1 and Tier 3 substitutions. This allows the systematic variation of the sequence in order to identify the most important motif within the larger candidate ligand sequence that is needed for binding the target protein. All peptides on the array were grown from the C→N terminal, with the exposed N-terminal amino acid masked by an acetyl group to prevent folding of the sequence and enable full presentation of the peptide to its target protein.
Screening was carried out typically by hybridization of the protein (1 μg/mL) against the array for 1 h at 4° C.; detection of bound protein was carried out using a fluorescently labeled anti-ESRRG mAb. (Direct labeling of ESRRG and alternative detection strategies are equally valid).
Highest binders (based on relative fluorescence signal) were selected and iteratively sequence expanded and arrayed (Iteration 2); and ESRRG binding sequences were selected as above. For iterative arrays, the core positions (AA 4 and 5) were kept unchanged while the outer amino acids (2, 3, 6, and/or 7) were permuted using Tier 3 substitutions.
Daughter candidate ligands and their new Tier 3 and/or Tier 1 based combinations were synthesized in situ on an addressable peptide microarray and screened against native human ESRRG protein in order to determine sequences that bind to this protein. Bound protein was detected by a fluorescently labeled anti-ESRRG mAb. Results are obtained in fluorescence intensity units which were used to rank the peptide ligands. Excess (100×) competing biological matrices (human serum, HSA/BSA or bacterial protein extract) were used as backgrounds to select for specific ligands to the protein. Other competing proteins can be added to background for specificity selection and directed evolution of ligands.
Iterative sequence expansion and arraying of 10 highest binding ligands to ESRRG from Iteration 1 was carried out and the new peptide sequences were synthesized on an array and screened against the protein, as described above. In this step, the central 2 amino acids (core) in peptide sequences were maintained unchanged while outlying amino acids (2, 3, 6, and 7) were permuted (using Tier 1 and Tier 3 substitutions) in a ‘cipher’ or ‘combination’ lock approach. Further affinity maturation of sequence was observed, with multifold enhancement in binding signal of Iteration 2 sequences (i.e., Granddaughters) compared to their respective parents from Iteration 1 (i.e., Daughters) on the same array.

Substance	Sample A (Bkgd) Signal (Iteration 2 iterative screen)	Sample B (Probe) Signal (Iteration 2 iterative screen)	Sample A (Bkgd) Signal (Iteration 1 primary screen)	Sample B (Probe) Signal (Iteration 1 primary screen)	other results
NLLLKHPD	216.15	2,297.98	–	–	–
NSLSWHLL	–	–	25.76	1,042.20	–
HDNMYLNE	81.50	7,243.75	–	–	–
Ac-NIKVNANN-NH2 (C-terminus assumed)	–	–	3.04	598.87	log2 (Sample B/Sample A) (Iteration 1 primary screen): 7.62
NNSWSLHL	–	–	23.54	–	–
FFNFSLPA	165.50	1,043.90	–	–	–
ANNLWLLH	–	–	41.92	1,606.54	–
HRSYPRRG	805.42	19,001.58	–	–	–
Ac-LLHSSKSQ-NH2 (C-terminus assumed)	–	–	19.42	819.16	log2 (Sample B/Sample A) (Iteration 1 primary screen): 5.40
FWKGHFDF	230.42	1,455.83	–	–	–
HLKLKQEN	183.65	1,745.92	–	–	–
NSLRQHLL	–	–	47.85	3,242.55	–
HFKLKQGG	641.69	3,108.23	–	–	–
ANNVSLLH	–	–	62.19	1,818.72	–
LLHLQKSQ	–	–	14.95	–	–
NSLLQHLL	–	–	2.42	9,739.76	–
ANNVLLLH	–	–	65.96	1,997.75	–
LFKLKQND	366.58	1,857.96	–	–	–
FYNMYLLN	251.75	1,558.62	–	–	–
HNSYPRNE	143.58	–	–	–	–
DNNYLLLL	156.87	2,242.02	–	–	–
ANNSQLLH	–	–	1.00	–	–
AANMSLLL	–	–	16.99	1,217.01	–

Substance	Sample A (Bkgd) Signal (Iteration 2 iterative screen)	Sample B (Probe) Signal (Iteration 2 iterative screen)	Sample A (Bkgd) Signal (Iteration 1 primary screen)	Sample B (Probe) Signal (Iteration 1 primary screen)	other results
EDSYPRDG	297.83	5,021.94	–	–	–
ALNFSLNW	152.44	–	–	–	–
FVNFSLGI	238.31	–	–	–	–
IKQNYNNS	–	–	23.70	–	–
FFKGHFKF	543.19	5,435.29	–	–	–
DRSYPRHT	68.94	–	–	–	–
Ac-NSLLKHLL-NH2 (C-terminus assumed)	–	–	73.81	14,810.16	log2 (Sample B/Sample A) (Iteration 1 primary screen): 7.65
FWNMYLNP	158.25	–	–	–	–
AANYLLLL	–	–	22.22	3,763.81	–
ANNIQLLH	–	–	2.12	–	–
AIRVHLMG	–	–	11.78	–	–
AFNMYLDE	115.25	–	–	–	–
PGKGHFPI	260.71	–	–	–	–
ANNLKLLH	–	–	56.94	1,672.30	–
ANNSWLLH	–	–	20.06	1,259.63	–
WNSYPRND	292.56	2,198.94	–	–	–
WIKLKQND	181.65	2,343.96	–	–	–
RKALVGKY	–	–	28.08	–	–
ANNLQLLH	–	–	47.08	1,537.71	–
Ac-IKQNHNNS-NH2 (C-terminus assumed)	–	–	1.00	793.75	log2 (Sample B/Sample A) (Iteration 1 primary screen): 9.63
ANNILLLH	–	–	13.51	1,093.06	–
HRSYPRVY	494.92	2,451.98	–	–	–
TGKLKQDG	209.87	2,464.29	–	–	–

Substance	Sample A (Bkgd) Signal (Iteration 2 iterative screen)	Sample B (Probe) Signal (Iteration 2 iterative screen)	Sample A (Bkgd) Signal (Iteration 1 primary screen)	Sample B (Probe) Signal (Iteration 1 primary screen)	other results
WRSYPRRA	619.96	2,611.56	–	–	–
Ac-NSLRKHLL-NH2 (C-terminus assumed)	–	–	20.79	856.14	log2 (Sample B/Sample A) (Iteration 1 primary screen): 5.36
WLLLKHGL	222.13	–	–	–	–
LILLQQLD	177.10	1,251.12	–	–	–
Ac-AIRLHLMG-NH2 (C-terminus assumed)	–	–	28.09	942.75	log2 (Sample B/Sample A) (Iteration 1 primary screen): 5.07
AANYILLL	–	–	13.78	2,012.02	–
ANNIWLLH	–	–	30.52	1,012.72	–
WGKLKQGE	209.10	1,231.15	–	–	–
RRSYPRGR	445.58	1,661.87	–	–	–
HNNFSLEP	107.88	–	–	–	–
KSLLQQLL	–	–	88.50	7,385.40	–
VLLHYGLY	347.96	1,796.19	–	–	–
AIRGHLMG	–	–	18.88	–	–
MYKLKQDN	184.58	–	–	–	–
DINFSLGI	160.50	4,797.29	–	–	–
Ac-AIRGALMG-NH2 (C-terminus assumed)	–	–	19.03	851.06	log2 (Sample B/Sample A) (Iteration 1 primary screen): 5.48
ANNFLLLH	–	–	46.43	1,624.73	–
HYKLKQHE	165.10	1,296.65	–	–	–
ANNLSLLH	–	–	21.54	1,220.01	–
Ac-NSLKKHLL-NH2 (C-terminus assumed)	–	–	5.04	9,219.14	log2 (Sample B/Sample A) (Iteration 1 primary screen): 10.84
ANNVKLLH	–	–	52.38	1,718.47	–
NIKVHANN	–	–	9.00	–	–
AANNYLLL	–	–	31.22	3,436.10	–

Substance	Sample A (Bkgd) Signal (Iteration 2 iterative screen)	Sample B (Probe) Signal (Iteration 2 iterative screen)	Sample A (Bkgd) Signal (Iteration 1 primary screen)	Sample B (Probe) Signal (Iteration 1 primary screen)	other results
PWKLKQDP	197.52	1,339.15	–	–	–
HNNYLLNN	190.35	–	–	–	–
LFLLQQDD	219.12	2,423.10	–	–	–
AANMYLLL	–	–	64.73	4,011.85	–
Ac-IKQDHNNS-NH2 (C-terminus assumed)	–	–	1.00	701.08	log2 (Sample B/Sample A) (Iteration 1 primary screen): 9.45
LFKLKQDG	277.71	2,776.37	–	–	–
Ac-ANNSRLLH-NH2 (C-terminus assumed)	–	–	31.74	1,480.35	log2 (Sample B/Sample A) (Iteration 1 primary screen): 5.54
PFKLKQGN	1,523.23	6,982.96	–	–	–
Ac-LYLLKHHP-NH2 (C-terminus assumed)	304.92	2,527.00	–	–	log2 (Sample B/Sample A) (Iteration 2 iterative screen): 3.05
NSLRSHLL	–	–	20.67	1,673.50	–
NNSYPRHR	731.12	3,422.79	–	–	–
LHLKGSQT	–	–	6.97	–	–
LHLRYSQT	–	–	33.10	–	–
IFLLQQDN	238.04	1,007.54	–	–	–
Ac-AANMFLLL-NH2 (C-terminus assumed)	–	–	42.26	1,752.81	log2 (Sample B/Sample A) (Iteration 1 primary screen): 5.37
RLLHYGSY	290.67	1,203.13	–	–	–
GKSYPRHR	553.79	3,049.48	–	–	–
NNNFSLHM	199.94	4,374.19	–	–	–
ANNSKLLH	–	–	23.60	1,009.30	–
WANYLLPP	182.90	2,860.10	–	–	–
